How the values were obtained:
[1] = tested on: macrophages and osteoblasts in BM and endosteum; settings: previously confirmed; cited from earlier work
Text: Using a similar immunohistochemistry approach, we examined whether the distribution of mature osteoblasts and macrophages within the BM and endosteal environment was disturbed by treatment with POL5551. […] In contrast to G-CSF (Figures 6c and d), treatmen ...

[2] = tested on: BM cells (CFU-C) migrating towards CXCL12; experiment: Transwell migration of BM CFU-C towards CXCL12; type: cell-based, mouse; settings: CXCL12 100 ng/ml, 4 h
Procedure: (§1) Input cells and cells from the lower chamber were plated into a colony assay; colony-forming unit culture (CFU-C) migration is expressed as the percent of migrated CFU-C of total CFU-C contained in the inoculum (input).
(§2) (a, b) Analysis of the binding properties of POL5551 to CXCR4. […] CXCR4 Ab without agonist/antagonists (untreated) or isotypic control Ab (isotype) were used as positive and negative controls.

[3] = tested on: hematopoietic progenitor cells (CFU-C) in diabetic C57BL/6 mice; experiment: CFU-C mobilization in Streptozotocin-induced diabetic mice; type: in vivo
Procedure: (§3) POL5551 (Polyphor Ltd, Allschwil, Switzerland) was suspended in saline and either injected as bolus intraperitoneally (i.p.) or intravenously (i.v.) (0.5–100 μg/g body weight) or filled into continuous-release osmotic minipumps (model 2001, Alzet, Palo Alto, CA, USA), which were implanted under general anesthesia into a dorsal subcutaneous pouch. Mono-biotinylated POL5551 (Polyphor Ltd) was suspended in PBS (Life Technologies GmbH, Darmstadt, Germany) and injected i.p. rhG-CSF (Granocyte, Chugai, Frankfurt, Germany) was suspended in dH20 and diluted in saline to a final concentration of 0.5 μg/μl for i.p. injection. Mice received G-CSF injections every 12 h at a dose of 100 μg/kg for a total of nine doses i.p., referred to as ‘standard regimen' throughout the manuscript. Subsequent blood withdrawal and/or administration of POL5551 were performed directly after the last G-CSF injection on day 5.
(§4) For enumeration of CFU-C, aliquots of cells were incubated in duplicate in commercially available growth-factor-supplemented methyl cellulose medium for mouse CFU-C (Stem Cell Technologies, Vancouver, BC, USA or Cell Systems) as described.[23], [32] CFU-C (BFU-E, CFU-GM and CFU-GEMM) were enumerated after 6–8 days.

[4] = tested on: hematopoietic progenitor cells (CFU-C) in C57BL/6 mice; settings: Plerixafor in mice; cited from earlier work
Procedure: In this study, in vitro and in vivo properties of the novel CXCR4 antagonist POL5551 as a mobilizing agent were evaluated.

[5] = tested on: hematopoietic progenitor cells (CFU-C) in C57BL/6 mice; experiment: CFU-C mobilization in C57BL/6 mice; type: in vivo
Procedure: as §3, §4

[6] = tested on: hematopoietic progenitor cells (CFU-C); experiment: Co-mobilization with Cyclophosphamide (CY); type: in vivo, mouse; settings: 5 mg/kg i.p. on day 8 after CY 200 mg/kg i.p.
Procedure: as §3, §4
(§5) Circulating CFU-Cs were enumerated at the indicated time points (mean±s.e.m., n=6–8 mice). […]

[7] = tested on: human CXCR4; experiment: Receptor binding: competition with CXCR4 antibody clones 12G5/1D9 on Ao.o1_hCXCR4 cells; settings: 1 μM, concurrent incubation with antibody, 4 °C, 30 min, PBS/BSA 0.5%, flow cytometry, n=3
Text: as §2
CXCR4 Ab without agonist/antagonists (untreated) or isotypic control Ab (isotype) were used as positive and negative controls.

[8] = mouse, in vivo
[9] = tested on: BM cells stimulated with CXCL12; experiment: F-actin polymerization assay after CXCL12 stimulation; type: cell-based, mouse; settings: pretreatment with 1 μM; CXCL12 100 ng/ml, 37 °C, n=3
Text: F-actin was then stained with AlexaFluor568-conjugated phalloidin (Molecular Probes, Eugene, OR, USA) followed by flow cytometric analysis of the relative staining intensity.
as §2

[10] = tested on: hematopoietic progenitor cells (CFU-C); experiment: Co-mobilization with G-CSF; type: in vivo, mouse; settings: Plerixafor 5 or 10 mg/kg i.p. at end of standard regimen of G-CSF, n=6–8
Procedure: as §3, §4, §5

[11] = tested on: PB-mobilized CFU-C migrating towards CXCL12; experiment: Ex vivo migration of mobilized CFU-C towards CXCL12; type: cell-based, mouse; settings: G-CSF standard regimen; n=5–8
Procedure: as §1

[12] = tested on: long-term repopulating HSCs; experiment: Limiting dilution competitive repopulating unit (CRU) assay; type: in vivo, mouse; settings: POL5551 30 mg/kg i.p.; G-CSF standard regimen; 16 weeks, n=5–10
Procedure: To determine the frequency of long-term repopulating HSCs in POL5551 versus G-CSF-mobilized blood, a limiting dilution CRU assay was performed.[34] Lethally irradiated CD45.2 hosts, 5–10 per group, received i.v. grafts consisting of limiting volumes (2.5, 5.0 and 10 μl) of CD45.1 POL5551 or G-CSF-mobilized blood cells together with 2.5 × 10^5 CD45.2 BM competitor cells. After 16 weeks, multilineage contribution of the CD45.1 graft-derived leukocytes was measured using flow cytometry. Animals with evidence of mobilized blood-derived (that is, CD45.1+) Gr1+, CD11b+, B220+ and CD3+ cells (⩾0.5% for each lineage) were considered positive for donor cell engraftment. CRU (LTRC) frequency was calculated using the LCALC software (Stem Cell Technologies).
Figure 5 Mobilization of CRU by POL5551. CRU frequency in POL5551 (30 mg/kg)-mobilized blood was determined using a CRU assay and compared with the CRU frequency in G-CSF (standard regimen)-mobilized blood. […] CRU engraftment, defined as multilineage engraftment of ⩾0.5% per lineage was quantified 16 weeks after transplantation. […] The mean CRU (LTRC) frequency (b) was calculated using Poisson's statistic (LCALC software, Stem Cell Technologies) (mean±upper/lower frequency).

[13] = tested on: white blood cells; experiment: Mobilization of mature leukocyte subsets; type: in vivo, C57BL/6 mice; settings: POL5551 4 h i.p., G-CSF standard regimen, Plerixafor 5 mg/kg i.p. 1 h
Procedure: (§6) Cell labeling was performed according to standard protocols using established marker panels for identification of different subsets in mouse hematopoietic tissues. Antibodies used in this study are detailed in Supplementary Methods. Subsequent acquisition and analysis were performed on a BD FACSCanto II cytometer with the FACSDiva software (BD Biosciences). Some data were further analyzed using the FlowJo software (Tree Star, Inc., Ashland, OR, USA). Cell isolation by flow sorting was performed on a BD FACS Aria II (BD Biosciences).
Figure S3: Mobilization of mature cell subsets by POL5551. A: Time-response of POL5551 mediated mobilization of WBCs. C57BL/6 mice received POL5551 (5 mg/kg) i.p. and blood was drawn at the indicated time points for blood count analysis (mean±SEM from 5 mice). B: Relative distribution of leukocytes in mobilized blood specimen. Blood was drawn before (baseline) and 4 hours after POL5551 injection i.p. (mean±SEM, n=5). […] C: Mobilization of T-, B-cells, monocytes and granulocytes. Blood composition was analyzed 4 hours after POL5551 injection (30 mg/kg, i.p. mean±SEM, n=6). […] D: Assessment of mobilized T-cell subsets.

[14] = tested on: c-kit+ cells; experiment: Immunophenotype of c-kit+ cells; type: in vivo, C57BL/6 mice; settings: G-CSF standard regimen, after 9th dose, mean +/- SEM, n=5
Procedure: as §6
C57BL/6 mice were mobilized with a bolus injection of POL5551 (5 or 30 mg/kg, i.p., n=5) or standard regimen of G-CSF (n=5). Saline treated animals (n=5) served as steady-state BM and PB donors. […] Percentage of positive cells was evaluated in comparison to isotype control. Mean fluorescence intensity was analyzed among c-kit+ cells.

[15] = tested on: hematopoietic progenitor cells (CFU-C) in DBA/2 mice; experiment: CFU-C mobilization, DBA/2 relative to C57BL/6 mice; type: in vivo; settings: G-CSF standard regimen
Procedure: as §3, §4

Question: With O=P1(N(CCCl)CCCl)NCCCO1 (stereo not drawn) [CY, Cyclophosphamide] as the molecule, how does the “Mobilization through collapse of HSC niche cellular components” value [1] read?
Answer: initiates collapse of HSC niche cellular components

Question: With “CXCL12: the natural ligand, the chemokine CXCL12” as the molecule, how does the “CXCL12-induced transwell migration of ssBM CFU-C” value ([2]; percent of input CFU-C, no inhibitor, n=13) read?
Answer: ~6%

Question: What does the source list for c1cc(CN2CCCNCCNCCCNCC2)ccc1CN1CCCNCCNCCCNCC1 [Plerixafor]?
Answer: Inhibition of CXCL12-induced transwell migration of ssBM CFU-C ([2]; pre-incubation with 1 μM, n=3): completely blocked; Rescue of diabetes-induced hyporesponsiveness to G-CSF ([3]; Plerixafor 10 mg/kg i.p. after the ninth G-CSF dose, 1 h, n=3): could rescue diabetes-induced hyporesponsiveness to G-CSF; CFU-C mobilization in diabetic vs healthy mice ([3]; Plerixafor 10 mg/kg i.p., 1 h, n=3): markedly decreased (to approximately one-fourth); Dose at which mobilization peaks [4]: 5 mg/kg; Circulating CFU-C ([5]; Plerixafor 5 mg/kg i.p., n=4): 1300 CFU-C/ml; CFU-C mobilized in combination with CY [6]: > 40 000 CFU-C per ml PB; Synergism with CY compared with CY plus G-CSF [6]: more pronounced than the combination of CY plus G-CSF; Binding to N-terminus / interference with 1D9 binding [7]: without affecting the binding of 1D9; Binding to extracellular loops / interference with 12G5 binding [7]: interfered with 12G5 binding; Toxicity limiting dose [8]: could not be tested at doses >10 mg/kg because of its toxicity; Inhibition of CXCL12-induced F-actin polymerization [9]: did not show an inhibitory effect; Mobilization in combination with G-CSF [10]: noticeably enhanced

B1: G-CSF: rhG-CSF (Granocyte, Chugai, Frankfurt, Germany) (protein, UniProt P09919 31-207, looked up)
Granulocyte …: TPLGPASSLPQSFLLKCLEQVRKIQGDGAALQEKLVSECATYKLCHPEELVLLGHSLGIPWAPLSSCPSQALQLAGCLSQLHSGLFLYQGLLQALEGISPELGPTLDTLQLDVADFATTIWQQMEELGMAPALQPTQGAMPAFASAFQRRAGGVLVASHLQSFLEVSYRVLRHLAQP
Question: Which results are given for B1?
Answer: Responsiveness of mobilized CFU-C to CXCL12 [11]: to a similar degree as was also observed for G-CSF-mobilized blood; CFU-C mobilization in diabetic vs healthy mice ([3]; G-CSF standard regimen, n=6): markedly decreased (to approximately one-fourth); Mobilization through collapse of HSC niche cellular components [1]: initiates collapse of HSC niche cellular components; Circulating CFU-C ([5]; G-CSF standard regimen (100 μg/kg every 12 h, nine doses i.p.), n=58): 3800 CFU-C/ml; CRU frequency in mobilized blood [12]: 34 CRU/ml; Frequency of neutrophils in mobilized vs non mobilized blood [13]: most prominently in G-CSF-mobilized; CD26, RMFI of c-kit+ cells [14]: 291 +/- 56; CD26, positive c-kit+ cells [14]: 1,6 +/- 0,3%; CD29, RMFI of c-kit+ cells [14]: 1587 +/- 267; CD29, positive c-kit+ cells [14]: 38,0 +/- 6,2%; CD49e, RMFI of c-kit+ cells [14]: 772 +/- 39; CD49e, positive c-kit+ cells [14]: 55,2 +/- 3,5%; CD49f, RMFI of c-kit+ cells [14]: 642 +/- 104; CD49f, positive c-kit+ cells [14]: 24,2 +/- 4,7%; CD49d, RMFI of c-kit+ cells [14]: 1179 +/- 58; CD49d, positive c-kit+ cells [14]: 72,6 +/- 3,6%; VCAM1, RMFI of c-kit+ cells [14]: 384 +/- 73; VCAM1, positive c-kit+ cells [14]: 0,7 +/- 0,1%; Mobilization in DBA/2 relative to C57BL/6 mice [15]: at least six times more CFU-C in DBA/2 than in C57BL/6 mice
